US20240368301A1 (HANGZHOU JIUYUAN GENE ENGINEERING, published 2024)

B1: BI 765063 (antibody, V domains shown)
VH: EVQLVQSGAEVKKPGESLRISCKASGYSFTSYWVHWVRQMPGKGLEWMGNIDPSDSDTHYSPSFQGHVTLSVDKSISTAYLQLSSLKASDTAMYYCVRGGTGTLAYFAYWGQGTLVTVSS
VL: DVVMTQSPLSLPVTLGQPASISCRSSQSLVHSYGNTYLYWFQQRPGQSPRLLIYRVSNRFSGVPDRFSGSGSGTDFTLKISRVEAEDVGVYYCFQGTHVPYTFGGGTKVEIKR
B2: Z6 (antibody, IgG1, V domains shown)
VH: QVQLQESGPGLVKPSQTLSLTCTVSGFSLTGYGVNWIRQPPGKGLEWIGIIWGDGSTDYNSALKSRVTISKDTSKNQVFLKLSSVTAADTAVYYCARAGKMDYWGQGTTVTVSS
VL: DIVLTQSPASLAVSPGQRATITCRASESVDSYGNSFMHWYQQKPGQPPKPLIYLASNLESGVPARFSGSGSRTDFTLTINPVEANDAANYYCQQNNEYPWTFGGGTKVEIK
notes: also called humanized variant Z6
B3: Z1 (antibody, IgG1, V domains shown)
VH: QVQLQESGPGLVKPSQTLSLTCTVSGFSLTGYGVNWIRQPPGKGLEWIGIIWGDGSTDYNSALKSRVTISVDTSKNQVFLKLSSVTAADTAVYYCARAGKMDYWGQGTTVTVSS
VL: DIVLTQSPASLAVSPGQRATITCRASESVDSYGNSFMHWYQQKPGQPPKPLIYLASNLESGVPARFSGSGSGTDFTLTINPVEANDAANYYCQQNNEYPWTFGGGTKVEIK
notes: also called humanized variant Z1
B4: Z3 (antibody, IgG1, V domains shown)
VH: QVQLQESGPGLVKPSQTLSLTCTVSGFSLTGYGVNWIRQPPGKGLEWIGIIWGDGSTDYNSALKSRVTISVDTSKNQVFLKLSSVTAADTAVYYCARAGKMDYWGQGTTVTVSS
VL: DIVLTQSPASLAVSPGQRATITCRASESVDSYGNSFMHWYQQKPGQPPKPLIYLASNLESGVPARFSGSGSRTDFTLTINPVEANDAANYYCQQNNEYPWTFGGGTKVEIK
notes: also called humanized variant Z3
B5: Z4 (antibody, IgG1, V domains shown)
VH: QVQLQESGPGLVKPSQTLSLTCTVSGFSLTGYGVNWIRQPPGKGLEWIGIIWGDGSTDYNSALKSRVTISKDTSKNQVFLKLSSVTAADTAVYYCARAGKMDYWGQGTTVTVSS
VL: DIVLTQSPASLAVSPGQRATITCRASESVDSYGNSFMHWYQQKPGQPPKPLIYLASNLESGVPARFSGSGSGTDFTLTINPVEANDAANYYCQQNNEYPWTFGGGTKVEIK
notes: also called humanized variant Z4
B6: Z5 (antibody, IgG1, V domains shown)
VH: QVQLQESGPGLVKPSQTLSLTCTVSGFSLTGYGVNWIRQPPGKGLEWIGIIWGDGSTDYNSALKSRVTISKDTSKNQVFLKLSSVTAADTAVYYCARAGKMDYWGQGTTVTVSS
VL: DIVLTQSPASLAVSPGQRATITCRASESVDSYGNSFMHWYQQKPGQPPKLLIYLASNLESGVPARFSGSGSRTDFTLTINPVEANDAANYYCQQNNEYPWTFGGGTKVEIK
notes: also called humanized variant Z5
B7: Z7 (antibody, IgG1, V domains shown)
VH: QVQLQESGPGLVKPSQTLSLTCTVSGFSLTGYGVNWIRQPPGKGLEWIGIIWGDGSTDYNSALKSRVTISKDTSKNQVFLKLSSVTADDTARYYCARAGKMDYWGQGTTVTVSS
VL: DIVLTQSPASLAVSPGQRATITCRASESVDSYGNSFMHWYQQKPGQPPKPLIYLASNLESGVPARFSGSGSGTDFTLTINPVEANDAANYYCQQNNEYPWTFGGGTKVEIK
notes: also called humanized variant Z7
B8: Z8 (antibody, IgG1, V domains shown)
VH: QVQLQESGPGLVKPSQTLSLTCTVSGFSLTGYGVNWIRQPPGKGLEWIGIIWGDGSTDYNSALKSRVTISKDTSKNQVFLKLSSVTADDTARYYCARAGKMDYWGQGTTVTVSS
VL: DIVLTQSPASLAVSPGQRATITCRASESVDSYGNSFMHWYQQKPGQPPKLLIYLASNLESGVPARFSGSGSRTDFTLTINPVEANDAANYYCQQNNEYPWTFGGGTKVEIK
notes: also called humanized variant Z8
B9: Z9 (antibody, IgG1, V domains shown)
VH: QVQLQESGPGLVKPSQTLSLTCTVSGFSLTGYGVNWIRQPPGKGLEWIGIIWGDGSTDYNSALKSRVTISKDTSKNQVFLKLSSVTADDTARYYCARAGKMDYWGQGTTVTVSS
VL: DIVLTQSPASLAVSPGQRATITCRASESVDSYGNSFMHWYQQKPGQPPKPLIYLASNLESGVPARFSGSGSRTDFTLTINPVEANDAANYYCQQNNEYPWTFGGGTKVEIK
notes: also called humanized variant Z9

Experiments:
[1] = molecular target: T1, SIRPα V1-his (ACRO, Cat #SIA-H5225) (human, UniProt P78324 31-370); assay: competition ELISA: coated SIRPα-V1-his, antibody titrated against biotin-CD47, streptavidin-HRP (panel SIRPα-V1-CD47)
T1 construct: not shown: His tag
T1 sequence (P78324 31-370 limits assumed): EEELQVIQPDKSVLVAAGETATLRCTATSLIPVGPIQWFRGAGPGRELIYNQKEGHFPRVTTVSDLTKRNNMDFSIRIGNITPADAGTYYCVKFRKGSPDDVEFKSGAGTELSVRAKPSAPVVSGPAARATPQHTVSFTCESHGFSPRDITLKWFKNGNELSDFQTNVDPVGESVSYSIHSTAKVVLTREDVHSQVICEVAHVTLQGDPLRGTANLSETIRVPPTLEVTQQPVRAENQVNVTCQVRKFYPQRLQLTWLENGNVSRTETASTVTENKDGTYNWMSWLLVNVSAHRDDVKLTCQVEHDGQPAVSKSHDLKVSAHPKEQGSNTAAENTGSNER
Protocol: 100 μL of 1 μg/mL of recombinant SIRPα-V1-his and SIRPα-V2-his were coated overnight at 4° C. in Maxisorp ELISA 96-well plates. […] After washing, each well was added with 0.2 μg Streptavidin-HRP, substrate TMB, and read by an enzyme marker.

[2] = molecular target: T2, SIRPα-V1 on 293T-SIRPα-V1 cells (human, UniProt P78324 31-504); assay: competition FACS: 293T-SIRPα-V1 cells, antibody titrated against CD47-FITC, % of blocking (panel SIRPα-V1-CD47)
T2 construct: Stably transfected cell line
T2 sequence (P78324 31-504): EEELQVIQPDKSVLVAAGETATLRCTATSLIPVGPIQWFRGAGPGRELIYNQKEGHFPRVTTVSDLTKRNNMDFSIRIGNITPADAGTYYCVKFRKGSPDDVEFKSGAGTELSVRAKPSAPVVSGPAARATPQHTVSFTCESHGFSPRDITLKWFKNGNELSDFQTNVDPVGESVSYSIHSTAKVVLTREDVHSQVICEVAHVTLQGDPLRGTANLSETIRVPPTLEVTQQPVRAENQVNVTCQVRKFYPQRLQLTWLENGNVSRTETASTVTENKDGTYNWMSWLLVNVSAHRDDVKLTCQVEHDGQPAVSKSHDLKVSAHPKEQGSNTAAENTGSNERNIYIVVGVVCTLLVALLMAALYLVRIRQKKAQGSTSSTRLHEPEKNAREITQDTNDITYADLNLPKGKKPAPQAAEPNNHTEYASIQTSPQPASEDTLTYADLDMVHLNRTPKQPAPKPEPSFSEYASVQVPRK
Protocol: After washing, cells were analyzed by utilizing FlowJo V10 and GraphPad Prism6 software.

[3] = molecular target: T1, SIRPα V1-his (ACRO, Cat #SIA-H5225); assay: ELISA: coated SIRPα-V1-his, antibody titrated, goat anti-hIgG Fc HRP (panel SIRPα-V1)
Protocol: 100 μL of 1 μg/mL of SIRPα-V1-his, SIRPα-V2-his and SIRPα-V8-his (Sino Biological, Cat #30015-H08H) were coated overnight at 4° C. in Maxisorp ELISA 96-well plates. […] After washing, 100 μL of 1:5000 dilution of goat Anti-hIgG Fc HRP (Invitrogen, Cat #A18823) was added to each well and incubated for 1 h. TMB substrate was used for color development and enzyme marker readings.

[4] = molecular target: T1, SIRPα V1-his (ACRO, Cat #SIA-H5225); assay: BLI (ForteBio Octet RED 96): SIRPα V1-his on Ni-NTA biosensor, antibody in a 1:2 series of 7 concentrations (row SIRPα-V1)
Protocol: 5 μg/mL SIRPα V1-his and SIRPα V2-his was loaded to a Ni-NTA biosensor for 600 s, respectively. […] The binding time was 200 s and the dissociation time was 600 s. The data were fitted to calculate the affinity.

[5] = molecular target: T2, SIRPα-V1 on 293T-SIRPα-V1 cells; assay: FACS titration on 293T-SIRPα-V1 cells, goat anti-hIgG-AF488 (panel SIRPα-V1)
Protocol: After washing, cells were stained by 0.2 μg of goat anti-hIgG-AF488 at 4° C. for 30 min, resuspended in […] of DPBS/1% FBS, and analyzed by FlowJo V10 and GraphPad Prism6 software.

[6] = molecular target: T1, SIRPα V1-his (ACRO, Cat #SIA-H5225); assay: SPR (Biacore), antibody captured by anti-Fc on CM5, 50 nM SIRPα V1-his injected, 1:1 model
Protocol: Using the Biacore analysis system, activators were prepared by mixing 400 mM EDC and 100 mM NHS and activated with a CM5 sensor chip at a flow rate of 10 μL/min for 420 s. Anti-Fc antibody at 30 μg/mL dissolved in 10 mM NaAc (pH 4.5) was injected into the channel at a flow rate of 10 μL/min and then closed with 1 M ethanolamine-HCl at a flow rate of 10 μL/min for 420 s. […] All experimental data were fitted using a 1:1 binding model.

Binder	IC50 (read off the curve) [1] [nM]	IC50 (read off the curve) [2] [nM]	EC50 (read off the curve) [3] [nM]	Kd [4] [nM]	koff [4] [s⁻¹]	EC50 (read off the curve) [5] [nM]	Kd [6] [nM]	koff [6] [s⁻¹]	kon [6] [M⁻¹ s⁻¹]
B1	~4	~0.3	~0.05	< 0.001	< 1e-07	~1			
B2							2.34	0.00165	708000
B3							3.61	0.00269	744000
B4							4.17	0.00292	699000
B5							1.98	0.00154	775000
B6							27.8	0.0208	747000
B7							2.01	0.00151	754000
B8							25.3	0.0194	768000
B9							2.27	0.0016	708000
